Data taken from patent publication US20250074971A1.

How the values were obtained:
[1] = target: Senecavirus A (SVA) particles (Senecavirus A); assay: ELISA, coated SVA, Fc control
[2] = target: Foot-and-Mouth Disease Virus (FMDV) particles (Foot-and-Mouth Disease Virus); assay: ELISA, coated FMDV, Fc control

Fc was tested, and the A450 [1] was 0.218 A450 and the A450 [2] was 0.054 A450.
